Data as given in patent publication US20250339531A1, “DUX4 POLYPEPTIDES AND NUCLEIC ACIDS FOR TREATING INFLAMMATORY AND AUTOIMMUNE CONDITIONS” (Fred Hutchinson Cancer Center, priority 2021, published 2025).

Tested on: proteins that co-immunoprecipitated with DUX4-CTD constructs expressed in MB135 myoblasts
Test: LC-MS of proteins co-immunoprecipitated with DUX4-CTD (Table 1) and western validation
Type: binding, human
Design: key to 4. mL1dL2 + Dox + IFNG / 4. + IFNG mix / 4. longCTD + Dox + IFNG / 3. + IFNg + Dox longCTD / 3. + Dox longCTD / 3. + IFNG longCTD: peptide-spectrum matches (PSMs) per protein
Details: for 4. longCTD + Dox + IFNG: LC-MS counts of the listed protein co-immunoprecipitated with DUX4-CTD bait longCTD, experiment 4, Dox + IFNG; for 3. + Dox longCTD / 3. + IFNg + Dox longCTD / 3. + IFNG longCTD: bait longCTD; for 3. + Dox longCTD: experiment 3, Dox only; for 3. + IFNg + Dox longCTD: experiment 3, IFNg + Dox; for SUM of PSMS: sum over all samples; for 3. + IFNG longCTD: experiment 3, IFNG only, no doxycycline (bait at background level)
Outline: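 FLAG-tagged DUX4-CTD expressed in doxycycline-induced MB135 myoblasts, some also IFNG-treated; nuclear lysates in pH 7.4 NP-40 IP buffer were pre-cleared, then anti-FLAG immunoprecipitated 3 h at 4 °C. For LC-MS, FLAG-peptide elution, in-gel trypsin digest, Orbitrap analysis; proteins with ≥2 PSMs in both experiments categorised and ranked by total PSMs.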

B1: Q9BUF5 (protein, UniProt Q9BUF5 1-446, looked up)
chain: MREIVHIQAGQCGNQIGTKFWEVISDEHGIDPAGGYVGDSALQLERINVYYNESSSQKYVPRAALVDLEPGTMDSVRSGPFGQLFRPDNFIFGQTGAGNNWAKGHYTEGAELVDAVLDVVRKECEHCDCLQGFQLTHSLGGGTGSGMGTLLISKIREEFPDRIMNTFSVMPSPKVSDTVVEPYNATLSVHQLVENTDETYCIDNEALYDICFRTLKLTTPTYGDLNHLVSATMSGVTTSLRFPGQLNADLRKLAVNMVPFPRLHFFMPGFAPLTSRGSQQYRALTVPELTQQMFDARNMMAACDPRHGRYLTVATVFRGPMSMKEVDEQMLAIQSKNSSYFVEWIPNNVKVAVCDIPPRGLKMASTFIGNSTAIQELFKRISEQFSAMFRRKAFLHWFTGEGMDEMEFTEAESNMNDLVSEYQQYQDATANDGEEAFEDEEEEIDG
modifications: full-length
With B1 the “4. longCTD + Dox + IFNG” value was 46, the “3. + Dox longCTD” value was 20 and the “3. + IFNg + Dox longCTD” value was 39. For the same molecule, the “SUM of PSMS” value was 128.

B2: SF3B3 (protein)
chain: MFLYNLTLQRATGISFAIHGNFSGTKQQEIVVSRGKILELLRPDPNTGKVHTLLTVEVFGVIRSLMAFRLTGGTKDYIVVGSDSGRIVILEYQPSKNMFEKIHQETFGKSGCRRIVPGQFLAVDPKGRAVMISAIEKQKLVYILNRDAAARLTISSPLEAHKANTLVYHVVGVDVGFENPMFACLEMDYEEADNDPTGEAAANTQQTLTFYELDLGLNHVVRKYSEPLEEHGNFLITVPGGSDGPSGVLICSENYITYKNFGDQPDIRCPIPRRRNDLDDPERGMIFVCSATHKTKSMFFFLAQTEQGDIFKITLETDEDMVTEIRLKYFDTVPVAAAMCVLKTGFLFVASEFGNHYLYQIAHLGDDDEEPEFSSAMPLEEGDTFFFQPRPLKNLVLVDELDSLSPILFCQIADLANEDTPQLYVACGRGPRSSLRVLRHGLEVSEMAVSELPGNPNAVWTVRRHIEDEFDAYIIVSFVNATLVLSIGETVEEVTDSGFLGTTPTLSCSLLGDDALVQVYPDGIRHIRADKRVNEWKTPGKKTIVKCAVNQRQVVIALTGGELVYFEMDPSGQLNEYTERKEMSADVVCMSLANVPPGEQRSRFLAVGLVDNTVRIISLDPSDCLQPLSMQALPAQPESLCIVEMGGTEKQDELGERGSIGFLYLNIGLQNGVLLRTVLDPVTGDLSDTRTRYLGSRPVKLFRVRMQGQEAVLAMSSRSWLSYSYQSRFHLTPLSYETLEFASGFASEQCPEGIVAISTNTLRILALEKLGAVFNQVAFPLQYTPRKFVIHPESNNLIIIETDHNAYTEATKAQRKQQMAEEMVEAAGEDERELAAEMAAAFLNENLPESIFGAPKAGNGQWASVIRVMNPIQGNTLDLVQLEQNEAAFSVAVCRFSNTGEDWYVLVGVAKDLILNPRSVAGGFVYTYKLVNNGEKLEFLHKTPVEEVPAAIAPFQGRVLIGVGKLLRVYDLGKKKLLRKCENKHIANYISGIQTIGHRVIVSDVQESFIWVRYKRNENQLIIFADDTYPRWVTTASLLDYDTVAGADKFGNICVVRLPPNTNDEVDEDPTGNKALWDRGLLNGASQKAEVIMNYHVGETVLSLQKTTLIPGGSESLVYTTLSGGIGILVPFTSHEDHDFFQHVEMHLRSEHPPLCGRDHLSFRSYYFPVKNVIDGDLCEQFNSMEPNKQKNVSEELDRTPPEVSKKLEDIRTRYAF
With B2 the “4. mL1dL2 + Dox + IFNG” value (LC-MS value per protein co-immunoprecipitated with DUX4-CTD construct mL1dL2 in MB135 myoblasts, + Dox + IFNG, kind of count not given) was 10.

B3: Q13885 (protein, UniProt Q13885 1-445, looked up)
chain: MREIVHIQAGQCGNQIGAKFWEVISDEHGIDPTGSYHGDSDLQLERINVYYNEAAGNKYVPRAILVDLEPGTMDSVRSGPFGQIFRPDNFVFGQSGAGNNWAKGHYTEGAELVDSVLDVVRKESESCDCLQGFQLTHSLGGGTGSGMGTLLISKIREEYPDRIMNTFSVMPSPKVSDTVVEPYNATLSVHQLVENTDETYSIDNEALYDICFRTLKLTTPTYGDLNHLVSATMSGVTTCLRFPGQLNADLRKLAVNMVPFPRLHFFMPGFAPLTSRGSQQYRALTVPELTQQMFDSKNMMAACDPRHGRYLTVAAIFRGRMSMKEVDEQMLNVQNKNSSYFVEWIPNNVKTAVCDIPPRGLKMSATFIGNSTAIQELFKRISEQFTAMFRRKAFLHWYTGEGMDEMEFTEAESNMNDLVSEYQQYQDATADEQGEFEEEEGEDEA
modifications: full-length
For B3, the “4. longCTD + Dox + IFNG” value was 99, the “3. + Dox longCTD” value was 35 and the “3. + IFNG longCTD” value was 13. For the same molecule, the “3. + IFNg + Dox longCTD” value was 61 and the “SUM of PSMS” value was 208.

B4: Q14247 (protein, UniProt Q14247 1-550, looked up)
chain: MWKASAGHAVSIAQDDAGADDWETDPDFVNDVSEKEQRWGAKTVQGSGHQEHINIHKLRENVFQEHQTLKEKELETGPKASHGYGGKFGVEQDRMDKSAVGHEYQSKLSKHCSQVDSVRGFGGKFGVQMDRVDQSAVGFEYQGKTEKHASQKDYSSGFGGKYGVQADRVDKSAVGFDYQGKTEKHESQRDYSKGFGGKYGIDKDKVDKSAVGFEYQGKTEKHESQKDYVKGFGGKFGVQTDRQDKCALGWDHQEKLQLHESQKDYKTGFGGKFGVQSERQDSAAVGFDYKEKLAKHESQQDYSKGFGGKYGVQKDRMDKNASTFEDVTQVSSAYQKTVPVEAVTSKTSNIRANFENLAKEKEQEDRRKAEAERAQRMAKERQEQEEARRKLEEQARAKTQTPPVSPAPQPTEERLPSSPVYEDAASFKAELSYRGPVSGTEPEPVYSMEAADYREASSQQGLAYATEAVYESAEAPGHYPAEDSTYDEYENDLGITAVALYDYQAAGDDEISFDPDDIITNIEMIDDGWWRGVCKGRYGLFPANYVELRQ
modifications: full-length
With B4 the “4. longCTD + Dox + IFNG” value was 5, the “3. + IFNg + Dox longCTD” value was 1 and the “SUM of PSMS” value was 6.

B5: Q13409 (protein, UniProt Q13409 1-638, looked up)
chain: MSDKSELKAELERKKQRLAQIREEKKRKEEERKKKETDQKKEAVAPVQEESDLEKKRREAEALLQSMGLTPESPIVFSEYWVPPPMSPSSKSVSTPSEAGSQDSGDGAVGSRTLHWDTDPSVLQLHSDSDLGRGPIKLGMAKITQVDFPPREIVTYTKETQTPVMAQPKEDEEEDDDVVAPKPPIEPEEEKTLKKDEENDSKAPPHELTEEEKQQILHSEEFLSFFDHSTRIVERALSEQINIFFDYSGRDLEDKEGEIQAGAKLSLNRQFFDERWSKHRVVSCLDWSSQYPELLVASYNNNEDAPHEPDGVALVWNMKYKKTTPEYVFHCQSAVMSATFAKFHPNLVVGGTYSGQIVLWDNRSNKRTPVQRTPLSAAAHTHPVYCVNVVGTQNAHNLISISTDGKICSWSLDMLSHPQDSMELVHKQSKAVAVTSMSFPVGDVNNFVVGSEEGSVYTACRHGSKAGISEMFEGHQGPITGIHCHAAVGAVDFSHLFVTSSFDWTVKLWTTKNNKPLYSFEDNADYVYDVMWSPTHPALFACVDGMGRLDLWNLNNDTEVPTASISVEGNPALNRVRWTHSGREIAVGDSEGQIVIYDVGEQIAVPRNDEWARFGRTLAEINANRADAEEEAATRIPA
modifications: full-length
For B5, the “4. longCTD + Dox + IFNG” value was 4, the “3. + IFNg + Dox longCTD” value was 1 and the “SUM of PSMS” value was 5.

B6: Q3SY84 (protein, UniProt Q3SY84 1-523, looked up)
chain: MSRQFTCKSGAAAKGGFSGCSAVLSGGSSSSFRAGSKGLSGGFGSRSLYSLGGVRSLNVASGSGKSGGYGFGRGRASGFAGSMFGSVALGPVCPTVCPPGGIHQVTVNESLLAPLNVELDPEIQKVRAQEREQIKALNNKFASFIDKVRFLEQQNQVLETKWELLQQLDLNNCKNNLEPILEGYISNLRKQLETLSGDRVRLDSELRNVRDVVEDYKKRYEEEINKRTAAENEFVLLKKDVDAAYANKVELQAKVESMDQEIKFFRCLFEAEITQIQSHISDMSVILSMDNNRNLDLDSIIDEVRTQYEEIALKSKAEAEALYQTKFQELQLAAGRHGDDLKNTKNEISELTRLIQRIRSEIENVKKQASNLETAIADAEQRGDNALKDARAKLDELEGALHQAKEELARMLREYQELMSLKLALDMEIATYRKLLESEECRMSGEFPSPVSISIISSTSGGSVYGFRPSMVSGGYVANSSNCISGVCSVRGGEGRSRGSANDYKDTLGKGSSLSAPSKKTSR
modifications: full-length
In the case of B6, the “3. + IFNg + Dox longCTD” value is reported as 9 and the “SUM of PSMS” value is reported as 30.

B7: P07437 (protein, UniProt P07437 1-444, looked up)
chain: MREIVHIQAGQCGNQIGAKFWEVISDEHGIDPTGTYHGDSDLQLDRISVYYNEATGGKYVPRAILVDLEPGTMDSVRSGPFGQIFRPDNFVFGQSGAGNNWAKGHYTEGAELVDSVLDVVRKEAESCDCLQGFQLTHSLGGGTGSGMGTLLISKIREEYPDRIMNTFSVVPSPKVSDTVVEPYNATLSVHQLVENTDETYCIDNEALYDICFRTLKLTTPTYGDLNHLVSATMSGVTTCLRFPGQLNADLRKLAVNMVPFPRLHFFMPGFAPLTSRGSQQYRALTVPELTQQVFDAKNMMAACDPRHGRYLTVAAVFRGRMSMKEVDEQMLNVQNKNSSYFVEWIPNNVKTAVCDIPPRGLKMAVTFIGNSTAIQELFKRISEQFTAMFRRKAFLHWYTGEGMDEMEFTEAESNMNDLVSEYQQYQDATAEEEEDFGEEAEEEA
modifications: full-length
With B7 the “4. longCTD + Dox + IFNG” value was 110, the “3. + Dox longCTD” value was 41 and the “3. + IFNG longCTD” value was 14. The “3. + IFNg + Dox longCTD” value was 75 and the “SUM of PSMS” value was 315.

B8: P68366 (protein, UniProt P68366 1-448, looked up)
chain: MRECISVHVGQAGVQMGNACWELYCLEHGIQPDGQMPSDKTIGGGDDSFTTFFCETGAGKHVPRAVFVDLEPTVIDEIRNGPYRQLFHPEQLITGKEDAANNYARGHYTIGKEIIDPVLDRIRKLSDQCTGLQGFLVFHSFGGGTGSGFTSLLMERLSVDYGKKSKLEFSIYPAPQVSTAVVEPYNSILTTHTTLEHSDCAFMVDNEAIYDICRRNLDIERPTYTNLNRLISQIVSSITASLRFDGALNVDLTEFQTNLVPYPRIHFPLATYAPVISAEKAYHEQLSVAEITNACFEPANQMVKCDPRHGKYMACCLLYRGDVVPKDVNAAIAAIKTKRSIQFVDWCPTGFKVGINYQPPTVVPGGDLAKVQRAVCMLSNTTAIAEAWARLDHKFDLMYAKRAFVHWYVGEGMEEGEFSEAREDMAALEKDYEEVGIDSYEDEDEGEE
modifications: full-length
In the case of B8, the “4. longCTD + Dox + IFNG” value is reported as 16, the “3. + Dox longCTD” value is reported as 14 and the “3. + IFNg + Dox longCTD” value is reported as 39. The “SUM of PSMS” value was 69.
